T1: FcRL6, overexpressed on 3T3 cells (UniProt Q6DN72 20-434, limits assumed)
T1 construct: whole, on cells
T1 sequence (looked up): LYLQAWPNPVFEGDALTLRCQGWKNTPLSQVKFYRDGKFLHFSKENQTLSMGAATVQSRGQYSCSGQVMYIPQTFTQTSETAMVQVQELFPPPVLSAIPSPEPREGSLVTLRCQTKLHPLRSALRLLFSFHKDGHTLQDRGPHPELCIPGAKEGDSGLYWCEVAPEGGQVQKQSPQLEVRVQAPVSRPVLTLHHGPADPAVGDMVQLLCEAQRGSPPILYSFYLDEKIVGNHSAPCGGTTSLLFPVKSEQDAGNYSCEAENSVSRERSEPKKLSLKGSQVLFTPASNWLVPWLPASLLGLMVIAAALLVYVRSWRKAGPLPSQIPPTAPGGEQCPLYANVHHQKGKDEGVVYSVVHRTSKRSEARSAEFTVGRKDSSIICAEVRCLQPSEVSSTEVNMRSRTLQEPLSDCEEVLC

T2: FcRL1, overexpressed on 3T3 cells (UniProt Q96LA6 17-429, limits assumed)
T2 construct: whole, on cells
T2 sequence (looked up): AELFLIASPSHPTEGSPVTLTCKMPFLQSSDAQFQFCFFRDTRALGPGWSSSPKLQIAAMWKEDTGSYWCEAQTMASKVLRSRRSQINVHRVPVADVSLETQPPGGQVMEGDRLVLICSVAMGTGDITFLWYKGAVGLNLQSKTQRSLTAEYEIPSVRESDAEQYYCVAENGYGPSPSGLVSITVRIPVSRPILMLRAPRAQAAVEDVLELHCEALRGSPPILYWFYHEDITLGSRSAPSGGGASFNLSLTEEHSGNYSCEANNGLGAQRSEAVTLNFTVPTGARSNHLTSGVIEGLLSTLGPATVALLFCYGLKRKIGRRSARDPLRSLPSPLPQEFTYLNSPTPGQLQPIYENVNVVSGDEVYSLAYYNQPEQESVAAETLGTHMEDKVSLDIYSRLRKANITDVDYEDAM

B1: ET200-015 (scFv)
scFv: QSVVTQPPSVSVAPGKTARITCGGNNIGSKSVHWYQQKPGQAPVLVIYYDSDRPSGIPERFSGSNSGNTATLTISRVEAGDEADYYCQVWDSSSDVVFGGGTKLTVLGSRGGGGSGGGGSGGGGSLEMAEVQLVQSGAEVKKPGASVKVSCKASGYTFTSYGISWVRQAPGQGLEWMGWISAYNGNTNYAQKLQGRVTMTTDTSTSTAYMELRSLRSDDTAVYYCARWGGFGAVDHWGQGTLVTVSSTSGQAGQHHHHHHGAYPYDVPDYAS
notes: screened as phage clone; entry is VL-linker-VH-His tag-HA tag
B2: ET200-011 (scFv)
scFv: QSVVTQPPSVSAAPGQRVTISCSGSSSNISIYDVSWYQQLPGTAPKLLIYGNNKRPSGIADRFSGSTSGTSATLGITGLQTGDEADYYCGTWDDSLSGGVFGGGTKLTVLGSRGGGGSGGGGSGGGGSLEMAQMQLVQSGAEVKKPGSSVKVSCEASGGTLSSYAINWVRQAPGQGLEWMGGIIPMFGTAHYAQKFQGRVTITADESTKTAYMELSSLRSEDTAVYYCARGVHYASFDHWGQGTLVTVSSTSGQAGQHHHHHHGAYPYDVPDYAS
notes: as for B1
B3: ET200-016 (scFv)
scFv: SSELTQDPAVSVALGQTVKITCQGDSLTDYHATWYQQKPGQAPVAVIYATNNRPTGIPDRFSGSSSGNTASLTITGAQAEDEADYYCNSRDSGTDEVLFGGGTKLTVLGSRGGGGSGGGGSGGGGSLEMAEVQLVETGGGLVKPGGSLRLSCAASGFTFSSYSMNWVRQAPGKGLEWVSSISSSSSYIYYADSVKGRFTISRDNAKNSLYLQMNSLRAEDTAVYYCARGQGYDYWGQGTLVTVSSTSGQAGQHHHHHHGAYPYDVPDYAS
notes: as for B1
B4: ET200-023 (scFv)
scFv: LPVLTQPPSVSVAPGKTARITCGGNNIGSKSVHWYQQKPGQAPVLVVYADSDRPSGIPERFSGSNSGNTATLTISRVEAGDEADYYCQVWDSSSYHNYVFGTGTKVTVLGSRGGGGSGGGGSGGGGSLEMAEVQLVQSGAEVKKPGASVKVSCKASGYTFTSYGISWVRQAPGQGLEWMGWISAYNGNTNYAQKLQGRVTMTTDTSTSTAYMELSSLRSEDTAMYYCARYWGFGVSDRWGQGTLVTVSSTSGQAGQHHHHHHGAYPYDVPDYAS
notes: as for B1
B5: ET200-020 (scFv)
scFv: QSVVTQPPSVSAAPGQKVTISCSGSTSNIGNNDVSWYQQLPGTAPKLLIYDNNKRPSGIPDRFSGSKSGTSATLGITGLQTGDEADYYCGTWDSSVSASWVFGRGTKLTVLGSRGGGGSGGGGSGGGGSLEMAQVQLVQSGAEVKKPGASVKVSCKASGYTFTSYGISWVRQAPGQGLEWMGWISAYNGNTNYPQKLQGRVTMTTDPSTSTAYMELRSLRSDDTAVYYCARSMTSFDYWGQGTLVTVSSTSGQAGQHHHHHHGAYPYDVPDYAS
notes: as for B1
B6: ET200-039 (scFv)
scFv: NFMLTQPHSVSESPGKTVTISCTRSSGSIASNYVQWYQQRPGSSPTTVIYEDNQRPSGVPDRFSGSIDSSSNSASLTISGLKTEDEADYYCQSYDSSNWVFGGGTKLTVLGSRGGGGSGGGGSGGGGSLEMAEVQLVQSGAEVKKPGSSVKVSCKASGGTFSSYAISWVRQAPGQGLEWMGGIIPIFGTANYAQKFQGRVTITADESTSTAYMELSSLRSEDTAVYYCARSNYYYNDYWGQGTLVTVSSTSGQAGQHHHHHHGAYPYDVPDYAS
notes: screened as phage clone; entry is VL-linker-VH-His tag-HA tag; also called ET200-39
B7: ET200-014 (scFv)
scFv: SYVLTQPPSVSVAPGKTARITCGGNNIGSKSVHWYQQKPGQAPVLVIYYDSDRPSGIPERFSGSNSGNTATLTISRVEAGDEADYYCQVWDSSSDHYVFGTGTKVTVLGSRGGGGSGGGGSGGGGSLEMAEVQLVETGGGLVQPGGSLRLSCAASGFTFSSYAMSWVRQAPGKGLEWVSAISGSDGSTYYADSVKGRFTISRDNSKNTLYLQMNSLRDEDTAVYYCARSHEANLVGDWWGQGTLVTVSSTSGQAGQHHHHHHGAYPYDVPDYAS
notes: as for B1
B8: ET200-012 (scFv)
scFv: QSVLTQPPSVSAAAGQKVTISCSGSDSNIGNNYVSWYQHLPGTAPKLLIYDVKNRPSGIPDRFSGSKSGSSATLGIAGLQPGDEADYYCGTWDSRLDAYVFGTGTKVTVLGSRGGGGSGGGGSGGGGSLEMAQMQLVQSGAEVKKPGASVKVSCKTSGFPFNIFGITWVRQAPGQGLEWMGWISGYNGNTDYPQKFQGRVTMSTDTSTSTAYMELRNLKSDDTAVYYCARGAYGGMDTWGQGTLVTVSSTSGQAGQHHHHHHGAYPYDVPDYAS
notes: as for B1
B9: ET200-022 (scFv)
scFv: QSVVTQPPSVSAAPGQKVTISCSGSSSNIGNNYVSWYQQLPGTAPKLLIYDNNKRPSGIPDRFSGSKSGTSATLGITGLQTGDEADYYCGTWDSSLGAPYVFGTGTKVTVLGSRGGGGSGGGGSGGGGSLEMAEVQLVQSWGGSEQPGRSLRLSCAASGFTFDDYAMHWVRQAPGKGLEWVSGISWNSGSIGYADSVKGRFTISRDNAKNSLYLQMNSLRAEDTAMYYCARYRQVGSAYDSWGQGTLVTVSSTSGQAGQHHHHHHGAYPYDVPDYAS
notes: as for B1
B10: ET200-021 (scFv)
scFv: QSVLTQPPSVSAAPGQKVTISCSGSNSNIGNNYVSWYQQLPGTAPKLLIYDNNKRPSGIPDRFSGSRSGTSATLGITGLQTGDEADYYCGTWNTTVTPGYVFGTGTKVTVLGSRGGGGSGGGGSGGGGSLEMAEVQLVQSGAEVKKPGASVKVSCKASGYTFTSYGISWVRQAPGQGLEWMGWISAYNGNTNYAQKLQGRVTMTTDTSTSTAYMELRSLRSDDTAMYYCARSVYDLDTWGQGTLVTVSSTSGQAGQHHHHHHGAYPYDVPDYAS
notes: as for B1
B11: ET200-019 (scFv)
scFv: NFMLTQPHSVSESPGKTVTISCTRSSGSIASNYVQWYQQRPGSAPTTVIYEDNQRPSGVPDRFSGSIDSSSNSASLTISGLKTEDEADYYCQSYDSSNSWVFGGGTKLTVLGSRGGGGSGGGGSGGGGSLEMAQVQLVQSGAEVKRPGSSVKVSCTASGGTFSSDAISWVRQAPGQGLEWMGGIIPMFGTANYAQKFQGRVTITADESTSTAYMELSSLRSEDTAVYYCAREGYYYPSAYLGSVLNDISSVYDEWGQGTLVTVSSTSGQAGQHHHHHHGAYPYDVPDYAS
notes: as for B1
B12: ET200-013 (scFv)
scFv: QSVVTQPPSVSGAPGQRVTISCTGSTSNIGAGYDVHWYQQLPGTAPKLLIYTNNFRPSGVPDRFSASKSGTSASLAITGLQAEDEADYYCGTWDSSLSAVVFGGGTKLTVLGSRGGGGSGGGGSGGGGSLEMAEVQLVESGTEVKKPGASVKVSCKASGYMFTSYGLNWVRQAPGQGLEWMGWISANNGKTNYAKKFQDRVTMTRDTSTSTGYMELRSLRSDDTAVYYCARHIGGSYFDRWGQGTLVTVSSTSGQAGQHHHHHHGAYPYDVPDYAS
notes: as for B1
B13: ET200-017 (scFv)
scFv: SYVLTQPPSVSVAPGKTARITCGGNNIGSKSVHWYQQKPGQAPVLVVYDDSDRPSGIPERFSGSNSGNTATLSISRVEAGDEADYYCQVWDSSSDHTVFGTGTKVTVLGSRGGGGSGGGGSGGGGSLEMAQVQLQQWGAGLLKPSETLSLTCAVYGGSFSGYYWSWIRQPPGKGLEWIGEINHSGSTNYNPSLKSRVTISVDTSKNQFSLKLSSVTAADTAVYYCARYYPGMDMWGQGTLVTVSSTSGQAGQHHHHHHGAYPYDVPDYAS
notes: as for B1
B14: ET200-018 (scFv)
scFv: QAVLTQPPSTSGTPGQRVTISCSGSSSNIGRNGVNWYQQLPGAAPKVLIYNDNQRPSGVPDRVSGSQSGSSGTLAIDGLRSEDEADYYCAAWDDSLHGVVFGGGTKLTVLGSRGGGGSGGGGSGGGGSLEMAQVQLVQSGAEVKKPGASVKVSCKVSGYTLNELSMHWVRQAPGKGLEWMGGFDPEDGETIYAQKFQGRVTMTEDTSTDTAYMELSSLRSEDTAVYYCARGGYGDSWGQGTLVTVSSTSGQAGQHHHHHHGAYPYDVPDYAS
notes: as for B1

These binders were tested against T1, FcRL6, overexpressed on 3T3 cells (assay: phage clone on 3T3-FcRL6 cells).

Row | Binder | binding result
1 | B1 | no binding
2 | B2 | no binding
3 | B3 | no binding
4 | B4 | no binding
5 | B5 | no binding
6 | B6 | no binding
7 | B7 | no binding
8 | B8 | no binding
9 | B9 | no binding
10 | B10 | no binding
11 | B11 | no binding
12 | B12 | no binding
13 | B13 | no binding
14 | B14 | no binding

What follows are binders tested against T2, FcRL1, overexpressed on 3T3 cells (assay: phage clone on 3T3-FcRL1 cells).

Row | Binder | binding result
15 | B1 | no binding
16 | B2 | no binding
17 | B3 | no binding
18 | B4 | no binding
19 | B5 | no binding
20 | B6 | no binding
21 | B7 | no binding
22 | B8 | no binding
23 | B9 | no binding
24 | B10 | no binding
25 | B11 | no binding
26 | B12 | no binding
27 | B13 | no binding
28 | B14 | no binding

These binders were tested against SLAMF9 protein (UniProt Q96A28 19-236, limits assumed) (assay: phage clone on SLAMF9 protein).
SLAMF9 protein, sequence (Q96A28 19-236 limits assumed): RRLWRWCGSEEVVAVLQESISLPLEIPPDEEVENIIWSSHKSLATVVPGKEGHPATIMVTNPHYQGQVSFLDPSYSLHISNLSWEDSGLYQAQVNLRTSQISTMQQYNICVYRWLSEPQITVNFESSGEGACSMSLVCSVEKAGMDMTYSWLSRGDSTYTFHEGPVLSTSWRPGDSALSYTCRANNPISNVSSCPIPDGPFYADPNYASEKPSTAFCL

Row | Binder | binding result
29 | B1 | no binding
30 | B2 | no binding
31 | B3 | no binding
32 | B4 | no binding
33 | B5 | no binding
34 | B6 | no binding
35 | B7 | no binding
36 | B8 | no binding
37 | B9 | no binding
38 | B10 | no binding
39 | B11 | no binding
40 | B12 | no binding
41 | B13 | no binding
42 | B14 | no binding

From patent publication US20210388081A1 (Memorial Sloan Kettering, published 2021)
